The target in data set [1] is T1, S. agalactiae γ-GCS-GS (Streptococcus agalactiae serotype V, UniProt Q8DXM9).
T1 sequence (Q8DXM9 1-750): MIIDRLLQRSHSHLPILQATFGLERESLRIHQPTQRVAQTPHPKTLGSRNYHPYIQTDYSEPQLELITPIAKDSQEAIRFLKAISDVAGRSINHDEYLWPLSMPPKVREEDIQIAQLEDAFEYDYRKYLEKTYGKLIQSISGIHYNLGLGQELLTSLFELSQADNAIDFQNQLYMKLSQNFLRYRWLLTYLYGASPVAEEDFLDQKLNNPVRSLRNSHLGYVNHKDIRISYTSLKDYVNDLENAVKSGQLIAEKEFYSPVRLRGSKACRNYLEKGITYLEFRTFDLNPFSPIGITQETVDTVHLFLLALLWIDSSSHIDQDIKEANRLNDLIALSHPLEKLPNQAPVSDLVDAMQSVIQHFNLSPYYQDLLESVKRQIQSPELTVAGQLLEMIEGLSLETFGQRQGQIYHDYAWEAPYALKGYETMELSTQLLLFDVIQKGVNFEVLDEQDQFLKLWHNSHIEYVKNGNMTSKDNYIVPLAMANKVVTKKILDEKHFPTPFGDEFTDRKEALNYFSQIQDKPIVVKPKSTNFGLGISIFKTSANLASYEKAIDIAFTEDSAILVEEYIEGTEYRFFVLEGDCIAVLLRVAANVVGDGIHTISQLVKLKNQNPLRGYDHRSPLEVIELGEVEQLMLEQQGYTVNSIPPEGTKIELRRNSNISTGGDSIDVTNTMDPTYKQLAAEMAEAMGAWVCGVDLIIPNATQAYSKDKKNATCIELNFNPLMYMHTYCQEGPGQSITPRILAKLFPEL
Description: γ-GCS activity assay based on ADP formation, S. agalactiae γ-GCS-GS. The format is biochemical. Details: corresponded to full-length S. agalactiae γ-GCS-GS with an N-terminal His8-tag; made in house; host or cells: E. coli SG13009 with pQE30-gshAB plus pREP4 or pRARE. Here is the method: In Table 1, a unit was defined as the amount of enzyme activity required to catalyze the formation of 1 μmol of product per hour. Specific activity was shown as units per mg protein. Activity was determined at 37° C. based on ADP formation in reaction mixtures containing L-glutamate and L-cysteine and using pyruvate kinase and lactate dehydrogenase to couple ADP formation to NADH oxidation, which was monitored at 340 nm.
Exp. Purif. 13, 268-276 (1998).
At set time points ranging from one to 30 minutes, 5 μl aliquots were removed and assayed for residual enzyme activity using the standard γ-GCS assay based on ADP formation.

In data set [2] the target is T2, Human γ-GCS (Homo sapiens, UniProt P48506).
T2 sequence (P48506 1-637): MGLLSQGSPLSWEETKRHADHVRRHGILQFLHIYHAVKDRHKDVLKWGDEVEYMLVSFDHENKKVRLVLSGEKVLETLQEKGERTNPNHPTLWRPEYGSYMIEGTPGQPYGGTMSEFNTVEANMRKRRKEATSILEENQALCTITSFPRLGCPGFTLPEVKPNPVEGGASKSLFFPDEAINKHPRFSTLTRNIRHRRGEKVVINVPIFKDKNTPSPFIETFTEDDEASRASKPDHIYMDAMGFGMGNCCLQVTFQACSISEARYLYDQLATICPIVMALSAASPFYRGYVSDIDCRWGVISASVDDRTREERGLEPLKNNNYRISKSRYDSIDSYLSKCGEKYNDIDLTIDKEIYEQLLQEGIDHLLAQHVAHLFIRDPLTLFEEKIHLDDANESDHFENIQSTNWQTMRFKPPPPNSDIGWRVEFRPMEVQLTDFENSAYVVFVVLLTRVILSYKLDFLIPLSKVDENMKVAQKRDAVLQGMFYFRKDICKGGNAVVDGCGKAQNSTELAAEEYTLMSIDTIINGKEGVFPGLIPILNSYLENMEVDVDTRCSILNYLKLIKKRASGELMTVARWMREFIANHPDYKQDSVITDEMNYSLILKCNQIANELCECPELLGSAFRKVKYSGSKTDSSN
T2 sequence (P48507 1-274 partner): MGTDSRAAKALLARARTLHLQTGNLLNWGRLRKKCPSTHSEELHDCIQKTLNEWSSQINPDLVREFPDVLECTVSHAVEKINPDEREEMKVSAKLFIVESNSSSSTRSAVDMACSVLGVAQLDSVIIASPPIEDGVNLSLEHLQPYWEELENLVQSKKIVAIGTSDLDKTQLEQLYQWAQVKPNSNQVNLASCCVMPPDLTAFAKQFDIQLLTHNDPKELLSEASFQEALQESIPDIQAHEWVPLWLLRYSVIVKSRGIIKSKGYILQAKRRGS
The settings on record: read-out: Ki; cited from earlier work.

The target in data set [3] is T1, S. agalactiae γ-GCS-GS. Description: GS activity assay based on ADP formation, S. agalactiae γ-GCS-GS. The settings on record: GSH concentrations of up to 100 mM. As to the method: Transformed cells were grown, induced, and harvested by centrifugation, and were then broken using a French pressure cell. […] The column was equilibrated with 50 mM Tris HCl buffer, pH 7.4, containing 5 mM L-glutamate, 5 mM MgCl2, and 5 mM β-mercaptoethanol, and the high-speed supernatant was loaded. After washing the column with equilibration buffer to remove proteins lacking a His-tag, the expressed His8-tagged protein was eluted using the same buffer supplemented with 200 mM imidazole. Amount of γ-GCS activity was determined as described in Example 2. […] It was observed that the purified enzyme catalyzed both the γ-GCS and the GS reactions. Since the GS-specific activity was higher than the specific activity for any known GS enzyme, it was apparent that the expressed 85 kDa S. agalactiae protein (rather than a trace impurity), accounted for the observed GS activity. Using the pREP4 auxiliary plasmid instead of the pRARE plasmid gave somewhat lower yields (325 mg total protein vs. 442 mg protein using pRARE) but the specific activities of the γ-GCS activity (870 units/mg) and GS activities (1143 units/mg) were similar.
Results for E. coli GS are from H. Gushima et al. J. Appl. Biochem. 5, 210-218 (1983). Results for rat GS are from J. L. Luo et al. Biochem. Biophys. Res. Commun. 275, 577-581 (2000). Results for human GS are from R. Njalsson et al. Biochem. Biophys. Res. Commun. 289, 80-84 (2001) and R. Njalsson et al. Biochem. J. 349, 275-279 (2000).

In data set [4] the target is E. coli γ-GCS (Escherichia coli, UniProt P0A6W9). The settings on record: read-out: Ki; cited from earlier work.
E. coli γ-GCS, sequence (P0A6W9 whole entry): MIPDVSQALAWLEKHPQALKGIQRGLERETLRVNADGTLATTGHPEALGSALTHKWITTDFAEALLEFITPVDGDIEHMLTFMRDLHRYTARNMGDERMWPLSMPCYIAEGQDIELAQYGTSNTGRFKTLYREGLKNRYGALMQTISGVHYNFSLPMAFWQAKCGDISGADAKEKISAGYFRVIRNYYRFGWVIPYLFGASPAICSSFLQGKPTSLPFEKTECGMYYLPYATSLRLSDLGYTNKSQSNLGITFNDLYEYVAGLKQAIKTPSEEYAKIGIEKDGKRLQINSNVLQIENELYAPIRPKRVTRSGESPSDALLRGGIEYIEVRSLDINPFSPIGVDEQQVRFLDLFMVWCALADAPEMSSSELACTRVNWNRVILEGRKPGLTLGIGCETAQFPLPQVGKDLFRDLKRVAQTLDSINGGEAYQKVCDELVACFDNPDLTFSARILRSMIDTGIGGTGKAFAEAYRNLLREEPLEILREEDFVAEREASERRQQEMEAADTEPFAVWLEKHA
Data set [5] addresses T3, E. faecalis γ-GCS-GS (Enterococcus faecalis, UniProt Q82ZG8). Nature of the data set: γ-GCS activity of E. faecalis γ-GCS-GS.
Data set [6] deals with S. mutans γ-GCS-GS (Streptococcus mutans serotype c, UniProt Q8DW15). Description: γ-GCS activity of S. mutans γ-GCS-GS. An excerpt:
3′ and 5′ […] 3′ and introduced unique Bgl II and Hind III sites (underlined), respectively.

For data set [7], the system named is N[C@@H](CCC(=O)N[C@@H](CS)C(=O)O)C(=O)O. Nature of the data set: purified protein, by the assay type. The settings on record: other: substrate Km, GS activity.
Data set [8] deals with N[C@@H](CS)C(=O)O. Nature of the data set: purified protein, by the assay type. The settings on record: other: substrate Km, γ-GCS activity.
The target in data set [9] is S. agalactiae γ-glutamylcysteine synthetase-glutathione synthetase (γ-GCS-GS) with an N-terminal His8-tag (Streptococcus agalactiae) (UniProt Q8DXM9). Description: cell-based or functional assay.
Substrate in data set [10]: N[C@@H](CS)C(=O)O
Description: γ-GCS activity assay based on ADP formation, S. agalactiae γ-GCS-GS. The format is biochemical, Streptococcus agalactiae. Particulars: other: substrate Km, pH 8.2, 37.0 °C.

Substrate in data set [11]: CC[C@H](N)C(=O)OC(=O)CC[C@H](N)C(=O)O
Nature of the data set: cells, lysate or membranes named. Particulars: other: substrate Km, GS activity; pH 7.4.

Substrate in data set [12]: N[C@@H](CCC(=O)N[C@@H](CS)C(=O)O)C(=O)O
Description: cells, lysate or membranes named. The settings on record: other: substrate Km, GS activity; pH 7.4.

Substrate in data set [13]: NCC(=O)O
Description: cells, lysate or membranes named. The settings on record: other: substrate Km, GS activity; pH 7.4.

In data set [14] the target is T3, E. faecalis γ-GCS-GS. Description: GS activity of E. faecalis γ-GCS-GS. The settings on record: purified enzyme.

These results are taken from patent US20080194701A1, “Bifunctional Enzyme with Y-Glutamylcysteine Synthetase and Glutathione Synthetase Activity and Uses Thereof” (priority 2004, published 2008).

S. mutans γ-GCS-GS, sequence (Q8DW15 whole entry): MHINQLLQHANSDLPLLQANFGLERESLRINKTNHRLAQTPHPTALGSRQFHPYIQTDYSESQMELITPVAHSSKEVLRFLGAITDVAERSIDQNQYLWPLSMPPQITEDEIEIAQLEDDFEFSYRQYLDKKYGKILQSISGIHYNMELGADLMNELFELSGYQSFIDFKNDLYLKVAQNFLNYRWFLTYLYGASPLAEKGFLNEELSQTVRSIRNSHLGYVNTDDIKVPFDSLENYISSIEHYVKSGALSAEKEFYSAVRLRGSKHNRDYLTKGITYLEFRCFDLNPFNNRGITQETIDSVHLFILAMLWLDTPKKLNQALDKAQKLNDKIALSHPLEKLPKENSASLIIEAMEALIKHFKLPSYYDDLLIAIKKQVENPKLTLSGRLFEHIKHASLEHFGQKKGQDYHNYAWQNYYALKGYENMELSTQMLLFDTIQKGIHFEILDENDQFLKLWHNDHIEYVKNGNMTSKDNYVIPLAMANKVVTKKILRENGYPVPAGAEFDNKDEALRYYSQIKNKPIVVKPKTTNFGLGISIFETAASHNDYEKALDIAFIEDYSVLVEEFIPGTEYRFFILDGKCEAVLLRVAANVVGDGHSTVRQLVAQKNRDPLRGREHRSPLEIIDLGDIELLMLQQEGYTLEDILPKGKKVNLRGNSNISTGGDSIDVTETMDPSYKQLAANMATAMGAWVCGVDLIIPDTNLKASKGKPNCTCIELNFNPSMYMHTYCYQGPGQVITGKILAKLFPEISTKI

For `N[C@@H](CCC(=O)N[C@@H](CS)C(=O)NCC(=O)O)C(=O)O` [GSH, L-γ-glutamyl-L-cysteinylglycine, reference compound], the Ki result in data set [1] was “no inhibition”; in data set [2], 5.8 mM; in data set [4], 2.7 mM; in data set [5] it was 25.1 ± 0.8 mM; in data set [6], 67 ± 0.8 mM. Further, in [3], the “inhibition of GS activity” value is listed as “does not significantly inhibit”.

Consider “E. faecalis γ-GCS-GS (Enterococcus faecalis V583)”, for which the Km in [7] worked out at 4300 ± 50 µM; in data set [8] it was 192 ± 14 µM.

For the molecule “Glutathione (L-γ-glutamyl-L-cysteinylglycine) (peptide)”, the inhibition of γ-GCS activity in [9] was less than 5%.

With “S. mutans γ-GCS-GS (Streptococcus mutans UA159)”, in data set [8], the Km is 144 ± 4 µM.

B1: S. agalactiae γ-GCS-GS (Streptococcus agalactiae 2603V/R) (protein)
chain: T1 sequence (Q8DXM9 1-750)
notes: corresponded to full-length S. agalactiae γ-GCS-GS with an N-terminal His8-tag; made in house; host or cells: E. coli SG13009 with pQE30-gshAB plus pREP4 or pRARE
In the case of B1, the Km is 160 ± 9 μM μM in data set [10], 11.5 ± 1.5 mM mM in data set [11], 3.9 ± 0.5 mM mM in data set [12] and 6 ± 0.5 mM mM in data set [13]. The Vmax in data set [10] is 1126 ± 21 units/mg; in data set [11], 2648 ± 597 units/mg units/mg; in data set [12] it was 2264 ± 896 units/mg units/mg; in data set [13] it was 2326 ± 584 units/mg.

B2: E. faecalis γ-GCS-GS: bifunctional γ-GCS-GS enzyme of E. faecalis (gshAB, EF3089; SEQ ID NO:12) expressed in E. coli (protein, listed as Enterococcus faecalis)
chain: MNYRELMQKKNVRPYVLMARFGLEKENQRSTREGLLATTEHPTVFGNRSYHPYIQTDFSETQLELITPVANSGTEMLRFLDAIHDVARRSIPEDEMLWPLSMPPQLPTKDEEIKIAKLDQYDAVLYRRYLAKEYGKRKQMVSGIHFNFEYDQALIQQLYDEQSEVTDCKQFKTKVYMKVARNFLRYRWLITYLFGASPVSEDRYFRVYDDQPQEPVRSIRNSTYGYRNHDNVKVSYASLERYLEDIHRMVENGLLSEEKEFYAPVRLRGGKQMSDLPKTGIRYIELRNLDLNPFSRLGIVEDTVDFLHYFMLYLLWTDEKEEADEWVKTGDIFNEQVALGHPHETIKLIAEGDRIFSEMIDMLDALGIRKGKEVVGKYYQQLRNPQDTVSGKMWTIIQENSNSELGNIFGNQYQSMAFERPYQLAGFREMELSTQIFLFDAIQKGLEIEILDEQEQFLKLQHGEHIEYVKNANMTSKDNYVVPLIMENKTVTKKILSAAGFHVPGGEEFSSFIEAQEAHLRYANKAFVVKPKSTNYGLGITIFKEGASLEDFTEALRIAFKEDTAVLIEEFLPGTEYRFFVLDNDVKAIMLRVPANVTGDGKHTVEELVAAKNSDPLRGTNHRAPLELIQLNDLEKLMLKEQGLTIYSVPEKEQIVYLRENSNVSTGGDSIDMTDVIDDSYKQIAIEAVAALGAKICGIDLIIPDKDVKGTRDSLTYGIIEANFNPAMHMHVYPYAGQGRRLTMDVLKLLYPEVVQ
Consider B2, for which the GS specific activity in [14] is listed as 2297 units/mg. Further, the “ratio of activities (γ-GCS to GS)” value in data set [5] was “about 0.23”. This molecule also showed a γ-GCS specific activity in data set [5] (purified enzyme) of 240 units/mg.

A word on the Ki: it is a dissociation constant, usually derived from enzyme kinetics or from competition with a known ligand.
